Laboratory results published in the supplement of paper PMC9170038.

Test system: MS2 coat protein
Experiment: apparent KD of MS2 coat protein; higher = weaker reporter binding
Settings: Eterna round: R107
How it was run: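 In 100 mM Tris-HCl pH 7.5 with 80 mM KCl and 4 mM MgCl2, and without or with constant ligand, SNAP-549-labelled MS2 coat protein was titrated in twofold steps from 0.7 or 1.5 nM to 3 µM. Per-step times went from 0.8–1.5 h down to 10–20 min. The RNA switches were transcribed on-chip from Illumina sequencing clusters, and apparent KD is the per-design median of normalised cluster binding-curve fits.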

[1] = input ligand: theophylline 20 uM
[2] = input ligand: theophylline 2 mM
[3] = input ligand: tryptophan 2.4 mM

Sequence | apparent KD of MS2 coat protein (input ligand: arginine 13.2 mM) [nM] | apparent KD of MS2 coat protein [1] [nM] | apparent KD of MS2 coat protein [2] [nM] | apparent KD of MS2 coat protein (input ligand: none) [nM] | apparent KD of MS2 coat protein [3] [nM]
ACAUGAGGAUCACCCAUGUACGGUAUCAAUCGAGGACCGGUACGGCCGCCACUCGGAAAUAGAAGCGAUUAUUAGUGUUCUUUGU [Same State - Tryptophan A / A] | 16.1 | 19 | 16.6 |  | 
ACCUGUACGAAAAGUGCAGGACAUGGAAAUCGAGGACCGGUACGGCCGCCACUCGUAUAAAACAAGUGGAUCACCCUUGUCCAUG [TrypAS 2 #AlternativeMS2 #Zipper #StaticStem] | 320 | 960 | 1500 | 773 | 1360
GGCACCAGGAGAAGGAGCGUGAAGACAUGAGGAUCACCCAUGUAGAGGCCCGUACAGGGUUCGCAGGUAGGUCGCUCCUGGUGCC [#1 Same State - Arginine B Attempt #12 (HarryS)] | 19.3 | 27.3 | 22.6 | 18.4 | 18.8
UCAAUAAUUAGAUUGUUACAUGUAUCAGAAGGAGCGUGAGUAAUCACAGGUAGGUCGCUGUUAACAUGAGGAUCACCCAUGUUUU [JR_ExcArginiA_Sub009] | 31.2 | 43.6 | 39.2 | 40.9 | 36.8
AGAGCAUUGACGGCCGCCACUCGUGUCACAUGAGGAUCACCCAUGUGACGGGUGAUCGCCCGGUUGAGGACCGGGUCAAUGCUCA [Omei Tryp SS B v8] | 10.4 | 13 | 11.2 |  | 
GCCGGACUUUCGGCCGCCACUGAGAGAGUCGUGUGAACAUGAGGAUCACCCAUGUAAUAUAUAUACAGGACCGGGAGGGUCCGGC [4.T] | 12.3 | 18.3 | 12.7 | 12.1 | 10.2
AGCGAGAUCCGUGAUACCAGCUACAUGAGGAUCACCCAUGUGAGCGCGAAAGUGCUGUGUAGCCCUUGGCAGCACAGUGGAUCUC [#29 Exclusion-TheophyllineB] | 8.84 | 14.6 |  |  | 11.3
UCUAACAUGAGGAUCACCCAUGUACCGUCCCGAGGACCGGUACGGCCGCCACUCGUCUUGCUAAAACUGAAGUGAUCACAAGCCU [theeternabot_sameState_MS2_Trp_A_2] | 25.2 | 30.9 | 24.6 |  | 
UACAUGAGGAUCACCCAUGUAAGGUGAGAUACCAGUGAUAUGCUACACCCUUGGCAGCUCACGGCUGACUAUCAGCACACAUGUA [Theo A SS t1] | 28.2 | 34.4 |  |  | 26.8
ACAUGAGGAUCACCCAUGUUUGUUGUUCCUCGAGGACCGGUACGGCCGCCACUCGAACGAGUGGCACGCGAGUGCGCACUCGCGU [aPa] | 13.9 | 19.6 | 13.1 |  | 13
ACAUGAGGAUCACCCAUGUGCCGUCUUGAUACCAGACGCGAAGUAGUCCCUUGGCAGCAACUACGUGACGGUCGCGCAUGUGUAG [bcxmullin] | 17.8 | 21.4 |  |  | 16.1
AUCGUACCUGAUGAUACCAGCAAUUGCUCGUAACAUGAGGAUCACCCAUGUGAUCAGUGAUGCCCUUGGCAGCAUGAUCGGUGCA [Same State - Theophylline B (Freestyle 19)] | 52.8 | 183 |  |  | 248
